# T1: human C2 E686A (human, UniProt P06681 21-752)
# T1 sequence: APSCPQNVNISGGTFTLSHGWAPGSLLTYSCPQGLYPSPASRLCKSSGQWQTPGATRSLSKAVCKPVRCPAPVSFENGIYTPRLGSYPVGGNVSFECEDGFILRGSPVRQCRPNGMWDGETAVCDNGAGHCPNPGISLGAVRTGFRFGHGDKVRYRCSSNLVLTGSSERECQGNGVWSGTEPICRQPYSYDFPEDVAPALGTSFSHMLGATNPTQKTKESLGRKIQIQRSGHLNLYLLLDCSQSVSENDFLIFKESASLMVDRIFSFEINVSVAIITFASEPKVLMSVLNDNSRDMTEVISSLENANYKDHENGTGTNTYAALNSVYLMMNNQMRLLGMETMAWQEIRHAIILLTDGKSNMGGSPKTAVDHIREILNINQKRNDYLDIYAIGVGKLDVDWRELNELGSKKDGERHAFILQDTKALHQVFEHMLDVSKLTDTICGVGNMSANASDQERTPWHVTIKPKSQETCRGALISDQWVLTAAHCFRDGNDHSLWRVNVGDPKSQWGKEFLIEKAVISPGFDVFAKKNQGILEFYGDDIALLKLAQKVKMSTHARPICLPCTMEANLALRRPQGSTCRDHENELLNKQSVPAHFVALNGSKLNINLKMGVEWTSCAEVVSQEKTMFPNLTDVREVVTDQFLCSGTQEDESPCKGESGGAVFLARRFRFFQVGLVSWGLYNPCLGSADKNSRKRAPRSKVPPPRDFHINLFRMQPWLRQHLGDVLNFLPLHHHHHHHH
# T2: human C2 F689A (human, UniProt P06681 21-752)
# T2 sequence: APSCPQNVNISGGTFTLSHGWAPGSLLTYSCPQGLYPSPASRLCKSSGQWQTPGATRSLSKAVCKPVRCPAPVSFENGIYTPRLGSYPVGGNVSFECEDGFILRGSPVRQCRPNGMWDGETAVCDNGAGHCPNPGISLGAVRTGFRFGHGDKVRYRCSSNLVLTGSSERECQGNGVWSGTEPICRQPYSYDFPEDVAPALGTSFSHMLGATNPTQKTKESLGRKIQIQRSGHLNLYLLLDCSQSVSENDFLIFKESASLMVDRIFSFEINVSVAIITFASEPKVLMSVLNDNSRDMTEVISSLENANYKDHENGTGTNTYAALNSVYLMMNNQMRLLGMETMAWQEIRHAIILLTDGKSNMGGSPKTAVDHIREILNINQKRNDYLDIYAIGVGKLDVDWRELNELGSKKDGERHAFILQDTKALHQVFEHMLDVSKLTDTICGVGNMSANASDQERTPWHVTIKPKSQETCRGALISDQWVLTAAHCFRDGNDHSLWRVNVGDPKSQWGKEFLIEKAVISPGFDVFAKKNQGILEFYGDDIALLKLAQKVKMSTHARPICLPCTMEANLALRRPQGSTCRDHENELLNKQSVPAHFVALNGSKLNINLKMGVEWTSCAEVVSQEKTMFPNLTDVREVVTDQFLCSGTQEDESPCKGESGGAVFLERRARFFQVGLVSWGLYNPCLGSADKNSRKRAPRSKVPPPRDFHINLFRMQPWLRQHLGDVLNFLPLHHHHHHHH
# T3: human C2 E275A (human, UniProt P06681 21-752)
# T3 sequence: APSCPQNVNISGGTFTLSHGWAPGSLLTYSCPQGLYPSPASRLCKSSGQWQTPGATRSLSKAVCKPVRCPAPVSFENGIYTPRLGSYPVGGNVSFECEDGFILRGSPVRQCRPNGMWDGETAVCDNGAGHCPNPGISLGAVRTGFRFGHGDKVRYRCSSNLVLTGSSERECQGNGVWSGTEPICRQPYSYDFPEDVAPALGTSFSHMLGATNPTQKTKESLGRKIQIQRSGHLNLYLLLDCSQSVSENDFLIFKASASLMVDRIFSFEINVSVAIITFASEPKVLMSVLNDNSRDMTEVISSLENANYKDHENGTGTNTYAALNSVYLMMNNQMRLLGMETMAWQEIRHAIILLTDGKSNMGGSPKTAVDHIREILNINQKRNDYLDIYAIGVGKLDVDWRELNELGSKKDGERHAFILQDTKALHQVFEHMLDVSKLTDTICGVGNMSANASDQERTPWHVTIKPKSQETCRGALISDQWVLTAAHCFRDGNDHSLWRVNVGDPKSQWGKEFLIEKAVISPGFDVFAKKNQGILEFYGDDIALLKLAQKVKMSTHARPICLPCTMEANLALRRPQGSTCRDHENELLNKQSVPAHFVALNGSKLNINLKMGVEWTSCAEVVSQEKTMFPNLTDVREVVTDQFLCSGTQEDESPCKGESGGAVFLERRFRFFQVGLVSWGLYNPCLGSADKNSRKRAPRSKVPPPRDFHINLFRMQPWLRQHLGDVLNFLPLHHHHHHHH
# T4: human C2 I272A (human, UniProt P06681 21-752)
# T4 sequence: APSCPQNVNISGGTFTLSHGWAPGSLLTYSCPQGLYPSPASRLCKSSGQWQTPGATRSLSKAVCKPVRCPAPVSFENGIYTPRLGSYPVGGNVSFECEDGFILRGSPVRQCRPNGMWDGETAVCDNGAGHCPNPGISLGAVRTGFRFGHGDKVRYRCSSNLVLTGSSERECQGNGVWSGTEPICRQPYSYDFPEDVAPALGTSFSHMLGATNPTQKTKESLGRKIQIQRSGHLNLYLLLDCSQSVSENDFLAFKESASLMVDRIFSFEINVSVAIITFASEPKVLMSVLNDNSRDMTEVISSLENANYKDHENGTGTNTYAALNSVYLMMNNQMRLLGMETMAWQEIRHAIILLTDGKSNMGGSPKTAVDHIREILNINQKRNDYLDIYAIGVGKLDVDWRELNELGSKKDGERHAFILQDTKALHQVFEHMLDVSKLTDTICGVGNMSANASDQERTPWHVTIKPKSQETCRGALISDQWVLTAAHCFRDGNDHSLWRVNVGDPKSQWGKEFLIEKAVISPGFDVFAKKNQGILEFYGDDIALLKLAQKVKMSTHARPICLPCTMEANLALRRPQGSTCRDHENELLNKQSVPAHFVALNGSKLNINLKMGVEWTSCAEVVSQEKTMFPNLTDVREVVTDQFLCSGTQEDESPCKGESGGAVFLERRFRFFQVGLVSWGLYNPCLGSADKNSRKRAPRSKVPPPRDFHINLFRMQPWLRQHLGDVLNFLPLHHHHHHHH
# B1: RF16-226 (antibody, human IgG4 S228P, lambda)
# heavy: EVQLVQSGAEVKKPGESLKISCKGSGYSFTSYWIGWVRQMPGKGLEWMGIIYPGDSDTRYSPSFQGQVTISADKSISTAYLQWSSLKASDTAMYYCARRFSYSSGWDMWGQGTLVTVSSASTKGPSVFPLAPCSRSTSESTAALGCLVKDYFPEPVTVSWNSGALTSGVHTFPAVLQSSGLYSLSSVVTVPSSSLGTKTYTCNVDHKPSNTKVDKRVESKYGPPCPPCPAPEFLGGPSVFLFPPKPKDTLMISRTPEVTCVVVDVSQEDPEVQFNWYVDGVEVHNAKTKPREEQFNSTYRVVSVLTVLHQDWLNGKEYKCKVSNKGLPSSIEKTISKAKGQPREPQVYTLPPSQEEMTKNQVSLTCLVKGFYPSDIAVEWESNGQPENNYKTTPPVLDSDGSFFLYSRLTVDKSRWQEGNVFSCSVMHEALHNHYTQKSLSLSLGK
# light: SYELTQPPSVSVSPGQTARITCSGDALTSKYVAWYQQKSGLAPLLVIYEDTRRPSGIPAKFSGSSSGSVATLTISGAHGDDEADYYCYSTDASGHQRVFGGGTKLTVLSQPKAAPSVTLFPPSSEELQANKATLVCLISDFYPGAVTVAWKADGSPVKAGVETTKPSKQSNNKYAASSYLSLTPEQWKSHRSYSCQVTHEGSTVEKTVAPTECS
# notes: pH-dependent anti-C2 antibody from a phage display library; also called WT
# Experiments:
# Assay in all cases: SPR, antibody captured, C2 as analyte;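 also: biacore SPR at 37 °C, anti-C2 mAbs captured via goat anti-human IgG on CM5 chips, double-referenced sensorgrams fit to a 1:1 kinetic or steady-state model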
# human C2 E686A = biological target: T1, human C2 E686A
# human C2 F689A = biological target: T2, human C2 F689A
# human C2 E275A = biological target: T3, human C2 E275A
# human C2 I272A = biological target: T4, human C2 I272A
binder,measurement,setting,value
B1,Kd,human C2 E686A,47.3 nM
same,Kd,human C2 F689A,9.3 nM
same,Kd,human C2 E275A,9.4 nM
same,Kd,human C2 I272A,10.4 nM
